Assay results from patent publication US20140329761A1, “PREVENTION AND TREATMENT OF ACUTE INFLAMMATORY CONDITIONS” (The University of Queensland, priority 2011, published 2014).
Where no end group is shown, it is not given here. [ ]: non-standard residue; d: D form. Cha = N[C@@H](CC1CCCCC1)C(=O)O

Experiments:
C3aR [1] = target: T1, C3aR (Homo sapiens, UniProt Q16581); settings: cited from earlier work
T1 sequence (Q16581 1-482): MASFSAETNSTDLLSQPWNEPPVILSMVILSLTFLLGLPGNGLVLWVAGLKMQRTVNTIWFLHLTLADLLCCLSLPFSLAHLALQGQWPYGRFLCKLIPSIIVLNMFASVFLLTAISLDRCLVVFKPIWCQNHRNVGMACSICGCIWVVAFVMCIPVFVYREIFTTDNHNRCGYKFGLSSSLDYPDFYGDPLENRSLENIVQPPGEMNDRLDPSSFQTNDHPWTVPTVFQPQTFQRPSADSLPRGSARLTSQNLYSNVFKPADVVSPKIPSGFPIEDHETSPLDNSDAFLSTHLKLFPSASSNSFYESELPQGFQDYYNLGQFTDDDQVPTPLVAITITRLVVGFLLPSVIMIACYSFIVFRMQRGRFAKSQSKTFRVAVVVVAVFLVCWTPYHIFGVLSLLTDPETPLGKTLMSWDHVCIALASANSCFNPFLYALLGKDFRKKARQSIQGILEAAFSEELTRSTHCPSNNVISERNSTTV

C3aR [2] = target: T2, C3aR (Mus musculus, UniProt O09047); assay: Mouse intestinal I/R injury: alkaline phosphatase (ALP) measurement; format: in vivo; settings: WT mice, I/R induced intestinal injury, 0.01 mg/kg i.v. pre-treatment, compared with vehicle pre-treated WT mice
T2 construct: endogenous in cells; host or cells: live wild-type C57BL/6 mice (in vivo; receptor on neutrophils and other bone-marrow-derived cells)
T2 sequence (O09047 1-477): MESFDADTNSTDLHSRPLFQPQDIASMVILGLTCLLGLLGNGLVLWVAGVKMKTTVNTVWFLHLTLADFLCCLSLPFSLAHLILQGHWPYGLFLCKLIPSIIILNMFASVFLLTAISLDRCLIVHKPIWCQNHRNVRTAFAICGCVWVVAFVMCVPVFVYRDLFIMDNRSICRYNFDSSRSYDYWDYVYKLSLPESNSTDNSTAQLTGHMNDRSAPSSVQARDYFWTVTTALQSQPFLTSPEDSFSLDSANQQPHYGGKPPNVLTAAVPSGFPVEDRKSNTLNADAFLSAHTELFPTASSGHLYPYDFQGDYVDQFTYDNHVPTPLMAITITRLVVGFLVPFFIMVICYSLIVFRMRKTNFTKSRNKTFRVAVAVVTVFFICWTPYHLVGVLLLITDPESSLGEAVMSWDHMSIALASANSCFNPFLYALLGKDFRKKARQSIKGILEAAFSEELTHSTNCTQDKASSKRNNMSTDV
Protocol: (§1) Male C57BL/6 or C3aR knockout mice were fasted for around 12 hours before experimentation. Mice were anesthetized with 2% isoflurane and oxygen at 2 L/minute throughout the experiment. […] An immediate check of complete shut-off of the blood supply to the small intestine was confirmed visually (ischemia). The abdomen was then covered with moist gauze. After thirty minutes of the ischemia episode, the ligature was removed and restoration of blood supply to the intestine was confirmed visually (reperfusion). The midline laparotomy incision was then closed. Mice were administrated with saline (100 μL) intraperitoneally every hour to compensate for fluid loss. The same procedure was performed on sham-operated mice including a loop of ligature around their arteries; however the arteries were not occluded. After two and half hours of the reperfusion episode, mice were sacrificed, and tissues and blood were harvested. Their small intestines (0.5-1 cm pieces) were snap-frozen in liquid nitrogen and stored at −80° C. for later assays. […]
Intestinal ALP concentrations were measured according to the manufacturer's instructions (ALP reagents; Thermo Scientific, USA). […] The absorbance at 405 was immediately measured in a kinetic manner for 10 minutes at 37° C. The results were calculated as follows: Activity in U/L=ΔAbs/min×Factor.

C3aR [3] = target: T2, C3aR; assay: Mouse intestinal I/R injury: histopathology of small intestine; format: in vivo; settings: WT mice, 0.01 mg/kg i.v. pre-treatment, compared with vehicle pre-treated WT mice; scale 0-5
Protocol: as §1
At sacrifice, a section of ileum (0.5 cm) was removed and fixed in 4% paraformaldehyde in phosphate buffered saline (PBS) for at least 72 hours. […] Histological assessment was carried out in a blinded fashion using light microscopy at 40× magnification, and scored for severity on a scale of 0-5. […]

C3aR [4] = assay: Mouse intestinal I/R injury: circulating neutrophils (white blood cell differentials); format: in vivo, mice; settings: C3aR-/- mice, gut ischemia/reperfusion, 0.01 mg/kg i.v. 10 minutes prior to ischemia
Protocol: as §1
(§2) To determine white blood cell populations, cell differentials were employed using blood smears and The Kwik-Diff Staining System (Thermo Shandon). […] Samples were counted in triplicate, with a total 100 white blood cells per slide counted, and the number of neutrophils expressed as a percentage of total white blood cells.

C3aR [5] = target: T2, C3aR; assay: as above; format: in vivo, mice; settings: WT mice, I/R induced intestinal injury, 0.01 mg/kg i.v. 10 minutes prior to ischemia, compared with vehicle pre-treated WT mice
Protocol: as §1, §2

C3aR [6] = target: T2, C3aR; assay: Mouse intestinal I/R injury: plasma cytokines (Cytometric Bead Array); format: in vivo; settings: WT ischemia/reperfusion mice, 2.5 hours after ischemia
Protocol: (§3) Male C57BL/6 or C3aR knockout mice were fasted for around 12 hours before experimentation. Mice were anesthetized with 2% isoflurane and oxygen at 2 L/minute throughout the experiment. […] An immediate check of complete shut-off of the blood supply to the small intestine was confirmed visually (ischemia). The abdomen was then covered with moist gauze. After thirty minutes of the ischemia episode, the ligature was removed and restoration of blood supply to the intestine was confirmed visually (reperfusion). The midline laparotomy incision was then closed. Mice were administrated with saline (100 μL) intraperitoneally every hour to compensate for fluid loss. The same procedure was performed on sham-operated mice including a loop of ligature around their arteries; however the arteries were not occluded. After two and half hours of the reperfusion episode, mice were sacrificed, and tissues and blood were harvested. Their small intestines (0.5-1 cm pieces) were snap-frozen in liquid nitrogen and stored at −80° C. for later assays. […] The blood was centrifuge at 14,000 rpm for 15 min at 4° C., and the resulting plasma stored at −80° C. […]
Cytokines were measured using a Cytometric Bead Array from Becton Dickinson (flow cytometry that allows for the quantification of multiple cytokines simultaneously), using plasma isolated from mice at termination.

C3aR [7] = target: T2, C3aR; assay: Mouse intestinal I/R injury: myeloperoxidase (MPO) activity of small intestine; format: in vivo; settings: WT mice, 0.01 mg/kg i.v. pre-treatment, compared with vehicle pre-treated WT mice
Protocol: as §3
Snap-frozen ileum (1 cm), excised at sacrifice, was briefly cleaned with ice-cold PBS and weighed. […] MPO activity was assayed spectrophotometrically at the absorbance 460 nm. […] The absorbance was measured using a Rainbow 96-well plate reader after 20 minutes.

C3aR [8] = target: T2, C3aR; assay: Mouse spinal cord injury (SCI): circulating white blood cell populations and total WBC counts; format: in vivo; settings: SCI mice, 4 doses of 1 mg/kg s.c. every 6 hours, 24 hours post-injury
Protocol: Experimental mice were anaesthetized using Zoletil (50 mg/kg) and xylazine (10 mg/kg). Next, a dorsal laminectomy was performed on the 9th thoracic vertebra to expose the underlying spinal cord. Mice were then subjected to a force-controlled, moderate-severe (70 kdyne) contusion injury of the spinal cord using the Infinite Horizon impactor device (Ghasemlou et al., 2005). Post-operatively, mice were given antibiotics for 5 days (Gentamycin; 1 mg/kg) as well as a single dose of Hartmann's solution (1 ml) to prevent dehydration and to compensate for loss of bodily fluids. Bladders of spinal cord-injured mice were voided manually twice daily. […]
Blood samples were collected from experimental animals either via retro-orbital eye bleeds or heart punctures at the time of sacrifice. […] Next, the number of white blood cells per set sample volume was determined using the Countess automated cell counter (Invitrogen) as per manufacturer's instructions. […]
These experiments were performed to test whether C3aR can be used as a therapeutic target to improve the outcome from neurotraumatic events (neuronal death and axonal degeneration at sites of SCI are inevitably linked to neuroinflammation). […] The effect of EP67 treatment on circulating white blood cell populations after SCI relative to saline-treated controls was assessed via flow cytometry and total WBC counts as detailed above.

## FLTChaAR (FLT[Cha]AR)
C3aR [1]; literature (Scully et al. 2010), human C3aR
  functional antagonism at C3aR: functional antagonist of both C3a and the short peptide agonist FWTLAR

## WWGKKYRASKLGLAR (A synthetic EP141)
C3aR [2]
  plasma ALP levels: significantly (P<0.02) reduced
C3aR [3]
  I/R induced intestinal injury (histopathological scores of the small intestine): significantly reduced
C3aR [4]
  effect on circulating neutrophils (neutrophil mobilization) in C3aR knockout mice: inactive
C3aR [5]
  percentage of circulating neutrophils: significantly (P<0.02) lower
C3aR [6]
  IL-6 levels in plasma: no significant change
C3aR [7]
  I/R induced MPO activity of the small intestine: significantly (P<0.05) lower
C3aR [1]; literature (Ember et al. 1991; Scully et al. 2010; Denonne et al. 2007)
  C3aR agonist activity: highly potent and selective C3aR agonist

## YSFKDMP(MeL)aR [EP67]
C3aR [8]; compared to vehicle-treated control mice with SCI
  reduction in the blood granulocyte number: 30%
C3aR [8]; relative to vehicle-treated controls, p=0.07, data not shown
  total WBC count: trend towards a decrease
